Experimental data: the supplement of paper PMC10126150
± gives the standard deviation of the averaged measurements.

Test system: ATP
Assay: switch fluorescence ratio, 500 uM ATP over buffer (Cy3 cluster intensity, sum of 5 cycles each) (fold (ratio)); higher = stronger signal-on switching upon ATP binding; sequences stand for … in TCGTCGGCAGCGTCAGATGTGTATAAGAGACAGTTTTTTTTTTTTTTTTTTTTTTTTT…TC
Details: aptamer strand: ATP DNA aptamer (quencher-CACCTGGGGGAGTATTGCGGAGGAAGG + anchor), 100 nM annealed; ATP concentration: 500 uM
In short: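 Between each of five buffer/ATP cycles, the flow-cell was stripped with NaOH and re-annealed. Each cycle imaged Cy3-labelled switching-strand clusters, annealed to 100 nM quencher-labelled ATP aptamer on a modified Illumina MiSeq flow-cell, first in selection buffer and then after 15 min with 500 uM ATP at 22 °C. The fluorescence ratio is summed target-cycle over summed buffer-cycle Cy3 intensity per cluster, averaged per switch-domain sequence, with clusters outside 100-1000 RFU excluded.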
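Further: ATP exposure 15 min at 22 °C before imaging.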

Sequence: CGAGTTATTG
- switch fluorescence ratio: 1.08 ± 0.094

Sequence: CGAGTTCGTT
- switch fluorescence ratio: 1 ± 0.025

Sequence: CGATAAAGAG
- switch fluorescence ratio: 1.02 ± 0.013

Sequence: CGATAACGTC
- switch fluorescence ratio: 0.992 ± 0.011

Sequence: CGATAATTTG
- switch fluorescence ratio: 0.994 ± 0.015

Sequence: CGATACGATG
- switch fluorescence ratio: 0.995 ± 0.011

Sequence: CGATACTTGA
- switch fluorescence ratio: 0.99 ± 0.038

Sequence: CGATAGCAGC
- switch fluorescence ratio: 2.43 ± 0.52

Sequence: CGATAGGGGG
- switch fluorescence ratio: 1.01 ± 0.022

Sequence: CGATAGTTAG
- switch fluorescence ratio: 0.986 ± 0.044

Sequence: CGATATAAGT
- switch fluorescence ratio: 1 ± 0.025

Sequence: CGATATAGAC
- switch fluorescence ratio: 1.06 ± 0.013

Sequence: CGATATCCAC
- switch fluorescence ratio: 1.07 ± 0.013

Sequence: CGATCACCTG
- switch fluorescence ratio: 1.02 ± 0.063

Sequence: CGATCCGGCG
- switch fluorescence ratio: 1.08 ± 0.16

Sequence: CGATCCTATG
- switch fluorescence ratio: 0.969 ± 0.045

Sequence: CGATCGGATG
- switch fluorescence ratio: 1.03 ± 0.023

Sequence: CGATCTAGTA
- switch fluorescence ratio: 0.97 ± 0.015

Sequence: CGATGAGGGT
- switch fluorescence ratio: 1.01 ± 0.029

Sequence: CGATGGACGG
- switch fluorescence ratio: 1.01 ± 0.033

Sequence: CGATGGGCTA
- switch fluorescence ratio: 1.02 ± 0.056

Sequence: CGATGGGTGC
- switch fluorescence ratio: 0.946 ± 0.015

Sequence: CGATGGTAGA
- switch fluorescence ratio: 1.03 ± 0.027

Sequence: CGATGGTGGC
- switch fluorescence ratio: 1.073 ± 0.0067

Sequence: CGATGGTGGG
- switch fluorescence ratio: 0.987 ± 0.0088

Sequence: CGATGTCACG
- switch fluorescence ratio: 1 ± 0.033

Sequence: CGATGTGCCC
- switch fluorescence ratio: 0.983 ± 0.024

Sequence: CGATGTGCGG
- switch fluorescence ratio: 1.03 ± 0.062

Sequence: CGATGTTGGG
- switch fluorescence ratio: 0.99 ± 0.018

Sequence: CGATGTTTTC
- switch fluorescence ratio: 1.03 ± 0.073

Sequence: CGATTAACTC
- switch fluorescence ratio: 1.03 ± 0.012

Sequence: CGATTAGGGA
- switch fluorescence ratio: 1 ± 0.028

Sequence: CGATTAGGTG
- switch fluorescence ratio: 1.193 ± 0.0052

Sequence: CGATTAGTTA
- switch fluorescence ratio: 0.998 ± 0.023

Sequence: CGATTATCTT
- switch fluorescence ratio: 1.01 ± 0.011

Sequence: CGATTATGTA
- switch fluorescence ratio: 0.9667 ± 0.0078

Sequence: CGATTCAACG
- switch fluorescence ratio: 1.02 ± 0.012

Sequence: CGATTGGAGT
- switch fluorescence ratio: 0.9864 ± 0.0058

Sequence: CGATTGGGGC
- switch fluorescence ratio: 0.992 ± 0.013

Sequence: CGATTGGGTC
- switch fluorescence ratio: 0.999 ± 0.013

Sequence: CGATTGTGGG
- switch fluorescence ratio: 0.9962 ± 0.0092

Sequence: CGATTTAGAG
- switch fluorescence ratio: 0.988 ± 0.019

Sequence: CGATTTAGCT
- switch fluorescence ratio: 0.988 ± 0.037

Sequence: CGATTTCCTA
- switch fluorescence ratio: 0.987 ± 0.015

Sequence: CGCACGAGGC
- switch fluorescence ratio: 1.23 ± 0.05

Sequence: CGCAGCCAGG
- switch fluorescence ratio: 3.33 ± 0.27

Sequence: CGCATAGCTT
- switch fluorescence ratio: 1.12 ± 0.021

Sequence: CGCATCGTAA
- switch fluorescence ratio: 1.074 ± 0.0044

Sequence: CGCATGGAGT
- switch fluorescence ratio: 1.04 ± 0.015

Sequence: CGCATGGCCT
- switch fluorescence ratio: 1.04 ± 0.072

Sequence: CGCATGTAAC
- switch fluorescence ratio: 3.43 ± 0.81

Sequence: CGCATGTTTT
- switch fluorescence ratio: 1.06 ± 0.1

Sequence: CGCATTGGGG
- switch fluorescence ratio: 1.13 ± 0.037

Sequence: CGCATTGTGA
- switch fluorescence ratio: 1.02 ± 0.063

Sequence: CGCCAAATG
- switch fluorescence ratio: 1.033 ± 0.0019

Sequence: CGCCAACAAC
- switch fluorescence ratio: 1.78 ± 0.036

Sequence: CGCCAGGGGA
- switch fluorescence ratio: 1.43 ± 0.59

Sequence: CGCCGAAGGG
- switch fluorescence ratio: 0.98523 ± 0.00014

Sequence: CGCCGGACAT
- switch fluorescence ratio: 1.04 ± 0.0027

Sequence: CGCCGGGGAT
- switch fluorescence ratio: 1.004 ± 0.002

Sequence: CGCCGGTTGG
- switch fluorescence ratio: 0.997 ± 0.014

Sequence: CGCCGTCTCA
- switch fluorescence ratio: 1.02 ± 0.042

Sequence: CGCCGTTGCG
- switch fluorescence ratio: 0.989 ± 0.065

Sequence: CGCCTAACGA
- switch fluorescence ratio: 1.08 ± 0.024

Sequence: CGCCTGACAC
- switch fluorescence ratio: 1.26 ± 0.0035

Sequence: CGCCTTTACA
- switch fluorescence ratio: 1.02 ± 0.029

Sequence: CGCCTTTACC
- switch fluorescence ratio: 1.18 ± 0.013

Sequence: CGCGACAACA
- switch fluorescence ratio: 0.999 ± 0.031

Sequence: CGCGAGAATA
- switch fluorescence ratio: 1.01 ± 0.084

Sequence: CGCGAGATAT
- switch fluorescence ratio: 1.03 ± 0.043

Sequence: CGCGAGGACT
- switch fluorescence ratio: 1.27 ± 0.11

Sequence: CGCGATCTGT
- switch fluorescence ratio: 1.18 ± 0.046

Sequence: CGCGCCGGGC
- switch fluorescence ratio: 1.03 ± 0.057

Sequence: CGCGCCTATC
- switch fluorescence ratio: 1.11 ± 0.02

Sequence: CGCGCTACTT
- switch fluorescence ratio: 1.73 ± 0.039

Sequence: CGCGGAACTG
- switch fluorescence ratio: 1.09 ± 0.016

Sequence: CGCGGACACG
- switch fluorescence ratio: 1.01 ± 0.048

Sequence: CGCGGGAAAA
- switch fluorescence ratio: 1.01 ± 0.099

Sequence: CGCGGGAATG
- switch fluorescence ratio: 1.05 ± 0.033

Sequence: CGCGGGGGGG
- switch fluorescence ratio: 1 ± 0.025

Sequence: CGCGGTGTCC
- switch fluorescence ratio: 1.02 ± 0.011

Sequence: CGCGTCAACG
- switch fluorescence ratio: 1.01 ± 0.027

Sequence: CGCGTCATGA
- switch fluorescence ratio: 1.02 ± 0.0043

Sequence: CGCGTCTGGG
- switch fluorescence ratio: 1.01 ± 0.042

Sequence: CGCGTGATGG
- switch fluorescence ratio: 1 ± 0.021

Sequence: CGCGTGATTT
- switch fluorescence ratio: 1.06 ± 0.058

Sequence: CGCGTGGCTG
- switch fluorescence ratio: 1 ± 0.019

Sequence: CGCGTGGGGG
- switch fluorescence ratio: 1.03 ± 0.081

Sequence: CGCGTTGTTG
- switch fluorescence ratio: 1.03 ± 0.012

Sequence: CGCTAATTGG
- switch fluorescence ratio: 1.09 ± 0.014

Sequence: CGCTACGGTT
- switch fluorescence ratio: 1.042 ± 0.0016

Sequence: CGCTAGGGTG
- switch fluorescence ratio: 1.115 ± 0.0032

Sequence: CGCTAGGTGT
- switch fluorescence ratio: 2.33 ± 0.76

Sequence: CGCTATATGG
- switch fluorescence ratio: 1.32 ± 0.047

Sequence: CGCTCATTTG
- switch fluorescence ratio: 0.97 ± 0.016

Sequence: CGCTCTAATA
- switch fluorescence ratio: 1.058 ± 0.01

Sequence: CGCTGAATTT
- switch fluorescence ratio: 0.975 ± 0.03

Sequence: CGCTGAGTGC
- switch fluorescence ratio: 1.08 ± 0.034

Sequence: CGCTGGATGG
- switch fluorescence ratio: 0.985 ± 0.0075

Sequence: CGCTGGGGGC
- switch fluorescence ratio: 1.03 ± 0.016
